Patent US9193963B2, “Mutant endoglucanase” (Toray Industries, Inc., priority 2011, dated 2015)

Legend:
[1] = Saccharification of lignocellulose 2 with Celluclast and endoglucanase; assay type: biochemical, Rice straw; details: 5 wt % Lignocellulose 2, pH 5.2, 50° C., 24 hours; 1.0 mg/mL cellulase + 0.1 mg/mL endoglucanase
Description: (§1) Rice straw was used as cellulose. Cellulose was immersed in a 1% aqueous sulfuric acid solution, and then autoclaved for 30 minutes at 150° C. (Nitto Koatsu Co. Ltd.). After treatment, the resultant was subjected to solid-liquid separation into an aqueous sulfuric acid solution (hereinafter, referred to as “dilute-sulfuric-acid-treated solution”) and cellulose treated with sulfuric acid. Next, the cellulose treated with sulfuric acid was mixed and agitated with the dilute-sulfuric-acid-treated solution so that the solid content concentration was 10 wt %. Then the mixture was adjusted to around pH 5 using sodium hydroxide. The resultant was used as lignocellulose 2 for the following examples.
(§2) The changes in the amount of glucose generated when the enzyme composition had been caused to act on lignocellulose substrates were compared. The substrates were prepared by suspending 5 wt % lignocelluloses (1 to 3) (prepared in Reference Example 3) in 50 mM acetate buffer (pH5.2). Reactions were performed at 50° C. for 24 hours. The concentrations of the generated glucose were measured after adequate sampling. As a filamentous bacterium-derived cellulase mixture, commercially available Trichoderma reesei-derived cellulase (Celluclast, Sigma) was used. As endoglucanases, the mutant endoglucanases prepared in Example 2 and the wild-type endoglucanases prepared in Reference Example 1 were separately used. The following quantities of enzymes were added: 1.0 mg/mL cellulase, and 0.1 mg/mL endoglucanase (in an amount one tenth that of the cellulase).

[2] = Activity to degrade phosphoric acid swollen cellulose; assay type: biochemical; details: 1% phosphoric acid swollen cellulose, pH 5.2, enzyme 0.5 μM, 1 hour, 50° C.; glucose generated by each parent endoglucanase = 100%
Description: The term “identity” refers to the percentage of amino acid residues identical to and amino acid residues analogous to the other amino acid residues in all the amino acid residues overlapped when an optimum alignment is performed by introducing gaps or no gaps into two amino acid sequences and then aligning the two amino acid sequences. Such an identity can be found using a method known by persons skilled in the art, sequence analysis software, and the like (a known algorithm such as BLAST or FASTA). The term “endoglucanase activity” is as defined above and can be determined by adding an enzyme solution to a substrate solution of phosphoric acid swollen cellulose that has been dissolved in 50 mM acetic acid-sodium acetate buffer (pH 5.2) or the like, performing 1 hour of reaction at 30° C. to 85° C., stopping the reaction by changing the pH if necessary, and then determining the concentration of glucose in the reaction solution using a glucose determination kit, for example.
The mutants obtained in Comparative Example 1 were compared in terms of activity by a technique similar to that in Example 3. The concentration (g/L) of glucose generated by each parent endoglucanase under the above reaction conditions was determined to be 100%.

[3] = Saccharification of lignocellulose 3 with Celluclast and endoglucanase; assay type: biochemical, Rice straw; details: 5 wt % Lignocellulose 3, pH 5.2, 50° C., 24 hours; 1.0 mg/mL cellulase + 0.1 mg/mL endoglucanase
Description: (§3) Rice straw was used as cellulose. The cellulose was immersed in water, and then autoclaved with agitation at 180° C. for 20 minutes (Nitto Koatsu Co. Ltd.). Pressure at this time was 10 MPa. After treatment, a solution component (hereinafter, referred to as “hydrothermally treated solution”) and the treated biomass component were subjected to solid-liquid separation by centrifugation (3000 G). The thus treated biomass component was used as lignocellulose 3 for the following examples.
as §2

[4] = Inhibition experiment with vanillin: degradation of phosphoric acid swollen cellulose; assay type: biochemical; details: enzyme 0.5 μM, 1 hour, 50° C., parent at 0 mM = 100%
[5] = Saccharification of lignocellulose 3 with Trichoderma reesei culture solution and endoglucanase; assay type: biochemical, Rice straw; details: Lignocellulose 3, 24 hours; cellulase 1.0 mg/mL + endoglucanase 0.1 mg/mL + β-glucosidase (Novozyme 188) 0.01 mg/mL
Description: as §3, §2
(§4) Lignocelluloses (1-3) prepared in Reference Example 3 were used as substrates. The Trichoderma reesei culture solution prepared in Reference Example 4 was used as a filamentous bacterium-derived cellulase mixture. Lignocelluloses (1-3) were hydrolyzed in a manner similar to that in Example 7, except for the quantities of the enzymes added: cellulase (1.0 mg/mL); endoglucanase (0.1 mg/mL (in an amount one tenth that of the cellulase); and β-glucosidase (Novozyme 188) (0.01 mg/mL (in an amount one hundredth that of the cellulase).

[6] = Saccharification of lignocellulose 2 with Trichoderma reesei culture solution and endoglucanase; assay type: biochemical, Rice straw; details: Lignocellulose 2, 24 hours; cellulase 1.0 mg/mL + endoglucanase 0.1 mg/mL + β-glucosidase (Novozyme 188) 0.01 mg/mL
Description: as §1, §2, §4

[7] = Inhibition experiment with ferulic acid: degradation of phosphoric acid swollen cellulose; assay type: biochemical; details: enzyme 0.5 μM, 1 hour, 50° C., parent at 0 mM = 100%
[8] = Saccharification of lignocellulose 1 with Celluclast and endoglucanase; assay type: biochemical, Rice straw; details: 5 wt % Lignocellulose 1, pH 5.2, 50° C., 24 hours; 1.0 mg/mL cellulase + 0.1 mg/mL endoglucanase
Description: (§5) Rice straw was used as cellulose. The cellulose was added to a small reactor (Taiatsu Techno Corporation, TVS-N2 (30 ml)), and then cooled with liquid nitrogen. An ammonia gas was fed to the reactor, thereby completely immersing the sample in the liquid ammonia. The reactor was closed using its lid, and then left to stand at room temperature for 15 minutes. Subsequently, treatment was performed for 1 hour in an oil bath at 150° C. After treatment, the reactor was removed from the oil bath, an ammonia gas leak was immediately performed within a draft chamber. The reactor was vacuumed using a vacuum pump to 10 Pa for drying. The resultant was used as lignocellulose 1 in the following examples.
as §2

[9] = Saccharification of lignocellulose 1 with Trichoderma reesei culture solution and endoglucanase; assay type: biochemical, Rice straw; details: Lignocellulose 1, 24 hours; cellulase 1.0 mg/mL + endoglucanase 0.1 mg/mL + β-glucosidase (Novozyme 188) 0.01 mg/mL
Description: as §5, §2, §4

| Molecule | Relative activity [2] [%] | Relative activity to degrade phosphoric acid swollen cellulose ([4]; vanillin 0 mM) [%] | Relative activity to degrade phosphoric acid swollen cellulose ([4]; vanillin 5 mM) [%] | Relative activity to degrade phosphoric acid swollen cellulose ([4]; vanillin 10 mM) [%] | Relative activity to degrade phosphoric acid swollen cellulose ([4]; vanillin 15 mM) [%] | Relative activity to degrade phosphoric acid swollen cellulose ([7]; ferulic acid 0 mM) [%] | Relative activity to degrade phosphoric acid swollen cellulose ([7]; ferulic acid 5 mM) [%] | Relative activity to degrade phosphoric acid swollen cellulose ([7]; ferulic acid 10 mM) [%] | Relative activity to degrade phosphoric acid swollen cellulose ([7]; ferulic acid 15 mM) [%] | also measured |
| --- | --- | --- | --- | --- | --- | --- | --- | --- | --- | --- |
| EGPa Wild-type: Pyrococcus abyssi-derived endoglucanase, SEQ ID NO: 25, parent endoglucanase (protein, Pyrococcus abyssi EGPa) MEIKLFCVFIVFIILFSPFVIALSYPDVNYTAENGIIFVQNVTTGEKKPLYLHGVSWFGFELKDHVVYGLDKRNWKDILKDVKRLGFNAIRLPFCSESIRPDTRPSPERINYELNPDLKNLTSLEIMEKIIEYANSIGLYILLDYHRIGCEEIEPLWYTENYSEEQYIKDWIFLAKRFGKYPNVIGADIKNEPHGEAGWGTGDERDFRLFAEKVGREILKVAPHWLIFVEGTQYTHVPNIDEIIEKKGWWTFWGENLMGVKDYPVRLPRGKVVYSPHVYGPSVYMMDYFKSPDFPNNMPIIWETHFGYLTDLNYTLVIGEWGGNYEGLDKVWQDAFVKWLIKKKIYNFFYWCLNPESGDTGGIFLDDWKTVNWEKMRVIYRLIKAANPEFEEPLYIILKTNATTSILGVGERIRIYWYTNGKVIDSNFAHSSEGEMNITVTKSMTLYIIVKKGNQTLRKELKLYVIGGNYGSNISTTQLVTPKKGGERISTSLKLAISLLFILLFVWYLLREKH | 100 | 100 | 40 | 40 | 40 | 100 | 60 | 50 | 50 | Concentration of glucose generated, Celluclast + Wild-type [1]: 12 g/L; Concentration of glucose generated, Celluclast + Wild-type [3]: 11 g/L; Concentration of glucose generated, Culture solution + Wild-type [5]: 8 g/L; Concentration of glucose generated, Culture solution + Wild-type [6]: 9 g/L; Concentration of glucose generated, Celluclast + Wild-type [8]: 12 g/L; Concentration of glucose generated, Culture solution + Wild-type [9]: 9 g/L |
| EGPa Mutant: mutant EGPa, SEQ ID NO: 26; residue corresponding to 273rd tryptophan substituted with alanine (protein, Pyrococcus abyssi EGPa W253A, residue corresponding to 273rd tryptophan substituted with alanine) MEIKLFCVFIVFIILFSPFVIALSYPDVNYTAENGIIFVQNVTTGEKKPLYLHGVSWFGFELKDHVVYGLDKRNWKDILKDVKRLGFNAIRLPFCSESIRPDTRPSPERINYELNPDLKNLTSLEIMEKIIEYANSIGLYILLDYHRIGCEEIEPLWYTENYSEEQYIKDWIFLAKRFGKYPNVIGADIKNEPHGEAGWGTGDERDFRLFAEKVGREILKVAPHWLIFVEGTQYTHVPNIDEIIEKKGWWTFAGENLMGVKDYPVRLPRGKVVYSPHVYGPSVYMMDYFKSPDFPNNMPIIWETHFGYLTDLNYTLVIGEWGGNYEGLDKVWQDAFVKWLIKKKIYNFFYWCLNPESGDTGGIFLDDWKTVNWEKMRVIYRLIKAANPEFEEPLYIILKTNATTSILGVGERIRIYWYTNGKVIDSNFAHSSEGEMNITVTKSMTLYIIVKKGNQTLRKELKLYVIGGNYGSNISTTQLVTPKKGGERISTSLKLAISLLFILLFVWYLLREKH | 100 | 100 | 90 | 90 | 90 | 100 | 95 | 90 | 90 | Concentration of glucose generated, Celluclast + Mutant [1]: 16 g/L; Concentration of glucose generated, Celluclast + Mutant [3]: 15 g/L; Concentration of glucose generated, Culture solution + Mutant [5]: 12 g/L; Concentration of glucose generated, Culture solution + Mutant [6]: 13 g/L; Concentration of glucose generated, Celluclast + Mutant [8]: 14 g/L; Concentration of glucose generated, Culture solution + Mutant [9]: 11 g/L |
